For experiment [1], the target named is Human metapneumovirus (HMPV) phosphoprotein (P), strain CAN97-83 (Human metapneumovirus (strain CAN97-83)) (UniProt Q8B9Q8).
Experiment [2] has the same target. This is another data set of the same source.

As to “HMPV N^0-P construct: full-length N (1 to 394) fused to a P peptide (1 to 40) (from UniProt Q6WBA1 1-394; Q8B9Q8 1-40)”, in experiment [1], the turbidity assay, absorbance at 395 nm against time (5-min intervals), N^0-P (40 uM) with anion exchange-purified P (40 uM), against N^0-P alone (peak above 0.6) (absorbance at 395 nm) is 0.3.

B1: HMPV wild-type nucleoprotein N, RNA-bound rings (N-RNA), strain CAN97-83 (natural protein)
chain: MSLQGIHLSDLSYKHAILKESQYTIKRDVGTTTAVTPSSLQQEITLLCGEILYAKHADYKYAAEIGIQYISTALGSERVQQILRNSGSEVQVVLTRTYSLGKVKNNKGEDLQMLDIHGVEKSWVEEIDKEARKTMATLLKESSGNIPQNQRPSAPDTPIILLCVGALIFTKLASTIEVGLETTVRRANRVLSDALKRYPRMDIPKIARSFYDLFEQKVYYRSLFIEYGKALGSSSTGSKAESLFVNIFMQAYGAGQTMLRWGVIARSSNNIMLGHVSVQAELKQVTEVYDLVREMGPESGLLHLRQSPKAGLLSLANCPNFASVVLGNASGLGIIGMYRGRVPNTELFSAAESYAKSLKESNKINFSSLGLTDEEKEAAEHFLNVSDDSQNDYE
For B1, the turbidity assay, absorbance at 395 nm against time (5-min intervals), N-RNA (40 uM) with heparin-purified P (40 uM), against N-RNA alone (absorbance at 395 nm) in experiment [2] was determined as 0.2.
